The record followed here is patent US20100104509A1 (Bristol-Myers Squibb, published 2010).

What is called EC50 is the concentration giving half of the maximal effect. A lower EC50 goes with a more potent agent. Broadly, the Kd is the free concentration of one partner at which half of the binding sites on the other are occupied at equilibrium, for simple one-to-one binding. Read a low Kd as a tighter complex. As a reminder, the EC50 (read off the curve) is the concentration at which the effect is half-maximal. A low value points to greater potency.

Experiment [1] deals with T1, human CD19 expressed on the cell surface (human, UniProt P15391 20-556).
T1 construct: CHO cells were transfected with the full-length cDNA encoding the transmembrane form of CD19; Raji, Daudi and ARH-77 cells carry endogenous CD19; also called CD19 on Raji B tumor cells; CD19 on Daudi B tumor cells
T1 sequence: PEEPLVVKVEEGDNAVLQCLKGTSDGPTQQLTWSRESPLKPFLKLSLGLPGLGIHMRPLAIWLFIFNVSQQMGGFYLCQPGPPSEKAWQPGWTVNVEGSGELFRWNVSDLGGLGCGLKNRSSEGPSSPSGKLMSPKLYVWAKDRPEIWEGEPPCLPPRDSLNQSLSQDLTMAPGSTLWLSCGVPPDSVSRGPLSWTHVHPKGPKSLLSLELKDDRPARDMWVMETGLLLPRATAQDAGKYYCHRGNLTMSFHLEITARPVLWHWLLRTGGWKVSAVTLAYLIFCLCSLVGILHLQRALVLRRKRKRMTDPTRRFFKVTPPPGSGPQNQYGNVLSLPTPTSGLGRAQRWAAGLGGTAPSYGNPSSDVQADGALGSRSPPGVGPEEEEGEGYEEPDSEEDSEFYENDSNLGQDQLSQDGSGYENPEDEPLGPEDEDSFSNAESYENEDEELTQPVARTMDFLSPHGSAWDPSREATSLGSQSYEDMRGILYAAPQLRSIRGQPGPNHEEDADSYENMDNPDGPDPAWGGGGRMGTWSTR
Put plainly: FACS competition on Raji cells: unlabeled antibody titrated against biotinylated 21D4a at 0.3 ug/mL, Geo Mean (PE); unit from the concentration axis.

Experiment [2] has as its target T1, human CD19 expressed on the cell surface. Put plainly: Raji direct binding FACS, Geo Mean; unit from the concentration axis. Here is the method:
(§1) Binding of the CD19 HuMAbs by flow cytometry to the B cell tumor lines Raji and Daudi, or to a CHO-CD19 transfected cell line was assessed. CHO cells were transfected with an expression plasmid containing the full length cDNA encoding the transmembrane form of CD19. […] A known murine anti-CD19 antibody was used as a positive control. The cells were washed and detected by either a phycoerythrin-labeled anti-human or anti-mouse secondary antibody and analyzed by flow cytometry. The results for binding to the CHO-CD19 cell line, Daudi B cell line, Raji B cell line and an expanded binding set against the Raji B cell line are shown in FIGS. 25A, 25B, 25C and 25D, respectively. […] All results are shown as measured by the geometric mean fluorescent intensity (GMFI) of staining.

Experiment [3] shares this target. Put plainly: FACS competition on Raji cells: unlabeled antibody titrated against biotinylated 21D4 at 0.3 ug/mL, Geo Mean (PE); unit from the concentration axis.
The target is the same in experiment [4]. Put plainly: Scatchard analysis; 125I-labelled antibody on Raji cells, 4 °C. How it is done:
Raji cells were obtained from ATCC (Accession #CCL-86) and grown in RPMI containing 10% fetal bovine serum (FBS). The cells were washed twice with RPMI containing 10% FBS at 4° C. and the cells were adjusted to 4×10⁷ cells/ml in RPMI media containing 10% fetal bovine serum (binding buffer containing 24 mM Tris pH 7.2, 137 mM NaCl, 2.7 mN KCl, 2 mM glucose, 1 mM CaCl₂, 1 mM MgCl₂, 0.1% BSA). Millipore plates (MAFB NOB) were coated with 1% nonfat dry milk in water and stored a 4° C. overnight. The plates were washed with binding buffer and 25 μl of unlabeled antibody (1000-fold excess) in binding buffer was added to control wells in a Millipore 96 well glass fiber filter plate (non-specific binding NSB). Twenty-five microliters of buffer alone was added to the maximum binding control well (total binding). […] The plates were incubated for 2 hours at 200 RPM on a shaker at 4° C. At the completion of the incubation the Millipore plates were washed three times with 0.2 ml of cold wash buffer (24 mM Tris pH 7.2, 500 mM NaCl, 2.7 mN KCl, 2 mM glucose, 1 mM CaCl₂, 1 mM MgCl₂, 0.1% BSA). The filters were removed and counted in a gamma counter. Evaluation of equilibrium binding was performed using single site binding parameters with the Prism software (San Diego, Calif.).

The target is the same in experiment [5]. Kind of experiment: Flow cytometry on CHO cells transfected with human CD19, GMFI. Here is the method:
as §1

B1: human monoclonal antibody 3C10 (antibody, V domains shown)
VH: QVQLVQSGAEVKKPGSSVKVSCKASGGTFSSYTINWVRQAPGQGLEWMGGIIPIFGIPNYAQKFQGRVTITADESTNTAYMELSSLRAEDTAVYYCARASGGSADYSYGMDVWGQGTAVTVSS
VL: DIQMTQSPSSLSASVGDRVTITCRASQGISSWLAWYQQKPEKAPKSLIYAASSLQSGVPSRFSGSGSGTDFTLTISSLQPEDFATYYCQQYKRYPYTFGQGTKLEIK
As to B1, the EC50 in experiment [1] came to 0.686 nM; in experiment [2] it was 0.24 µg/mL; in experiment [3] it was 0.628 nM.

B2: 5G7-N19K (antibody, V domains shown)
VH: EVQLVQSGAEVKKPGESLKISCKGSGYSFTSYWIGWVRQMPGKGLEWMGIIYPGDSDTRYSPSFQGQVTISADKSINTAYLQWSSLKASDTAMYYCARGVSMIWGVIMDVWGQGTTVTVSS
VL: AIQLTQSPSSLSASVGDRVTITCRASQGISSALAWYQQKPGKAPKLLIYDASSLESGVPSRFSGSGSGTDFTLTISSLQPEDFATYYCQQFNSYPWTFGQGTKVEIK
notes: also called 5G7 with N-I-S changed to K-I-S
As for B2, the EC50 in experiment [1] was 2.38 nM; in experiment [2] it was 0.224 µg/mL; in experiment [3], 2.1 nM.

B3: human monoclonal antibody 13F1 (antibody, V domains shown)
VH: EVQLVQSGAEVKKPGESLQISCKGSGYTFTNYWIAWVRQMPGKGLEWMGIIYPGDSDTRYSPSFQGQVTISADKSISTAYLQWSGLKASDTAMYYCARQGYSSGWRSYYGMGVWGQGTTVTVSS
VL: AIQLTQSPSSLSASVGDRVTITCRASQGISSALAWYQQKPGKAPKLLIYDASSLESGVPSRFSGSGSGTDFTLTISSLQPEDFATYYCQQFNSYPHTFGQGTKLEIK
For the molecule B3, the EC50 in experiment [1] worked out at 1.97 nM; in experiment [2], 0.266 µg/mL; in experiment [3], 1.99 nM.

B4: 5G7-N19Q (antibody, V domains shown)
VH: EVQLVQSGAEVKKPGESLQISCKGSGYSFTSYWIGWVRQMPGKGLEWMGIIYPGDSDTRYSPSFQGQVTISADKSINTAYLQWSSLKASDTAMYYCARGVSMIWGVIMDVWGQGTTVTVSS
VL: AIQLTQSPSSLSASVGDRVTITCRASQGISSALAWYQQKPGKAPKLLIYDASSLESGVPSRFSGSGSGTDFTLTISSLQPEDFATYYCQQFNSYPWTFGQGTKVEIK
notes: Glycosylation-site variant of 5G7; also called 5G7 with N-I-S changed to Q-I-S
As to B4, the results for the 50% effective concentration (EC50) in experiment [1], in experiment [2] and in experiment [3] were 2.63 nM, 0.217 µg/mL and 2.16 nM, respectively.

B5: human monoclonal antibody 5G7 (antibody, V domains shown)
VH: EVQLVQSGAEVKKPGESLNISCKGSGYSFTSYWIGWVRQMPGKGLEWMGIIYPGDSDTRYSPSFQGQVTISADKSINTAYLQWSSLKASDTAMYYCARGVSMIWGVIMDVWGQGTTVTVSS
VL: AIQLTQSPSSLSASVGDRVTITCRASQGISSALAWYQQKPGKAPKLLIYDASSLESGVPSRFSGSGSGTDFTLTISSLQPEDFATYYCQQFNSYPWTFGQGTKVEIK
modifications: N-linked carbohydrate in the variable (Fab) region at the N-I-S motif starting at position 19
With B5, the EC50 amounted to 2.85 nM in experiment [1], 0.188 µg/mL in experiment [2] and 2.45 nM in experiment [3].

B6: human monoclonal antibody 21D4a (antibody, V domains shown)
VH: EVQLVQSGAEVKKPGESLKISCKGSGYSFSSSWIGWVRQMPGKGLEWMGIIYPDDSDTRYSPSFQGQVTISADKSIRTAYLQWSSLKASDTAMYYCARHVTMIWGVIIDFWGQGTLVTVSS
VL: AIQLTQSPSSLSASVGDRVTITCRASQGISSALAWYQQKPGKAPKLLIYDASSLESGVPSRFSGSGSGTDFTLTISSLQPEDFATYYCQQFNSYPFTFGPGTKVDIK
notes: Same heavy chain as 21D4, paired with the second light chain made by the 21D4 hybridoma
For the molecule B6, the EC50 in experiment [1] came to 0.767 nM; in experiment [2], 0.129 µg/mL; in experiment [3] it was 0.694 nM.

B7: human monoclonal antibody 21D4 (antibody, V domains shown)
VH: EVQLVQSGAEVKKPGESLKISCKGSGYSFSSSWIGWVRQMPGKGLEWMGIIYPDDSDTRYSPSFQGQVTISADKSIRTAYLQWSSLKASDTAMYYCARHVTMIWGVIIDFWGQGTLVTVSS
VL: AIQLTQSPSSLSASVGDRVTITCRASQGISSALAWYQQKPGKAPKLLIYDASSLESGVPSRFSGSGSGTDFTLTISSLQPEDFATYYCQQFNSYPYTFGQGTKLEIK
notes: Fully human antibody from a KM mouse hybridoma, kappa light chain; also called HuMAb 21D4; parental anti-CD19 antibody 21D4
On to B7, for which the figures for the half-maximal effective concentration (EC50) in experiment [1], in experiment [2] and in experiment [3] were 0.832 nM, 0.141 µg/mL and 0.655 nM, respectively. The Kd in experiment [4] is about 2.14 nM. For the same molecule, in experiment [5], the “EC50 (read off the curve)” value was about 0.1 µg/mL.

B8: human monoclonal antibody 47G4 (antibody, V domains shown)
VH: QVQLVQSGAEVKKPGSSVKVSCKDSGGTFSSYAISWVRQAPGQGLEWMGGIIPIFGTTNYAQQFQGRVTITADESTSTAYMELSSLRSEDTAVYYCAREAVAADWLDPWGQGTLVTVSS
VL: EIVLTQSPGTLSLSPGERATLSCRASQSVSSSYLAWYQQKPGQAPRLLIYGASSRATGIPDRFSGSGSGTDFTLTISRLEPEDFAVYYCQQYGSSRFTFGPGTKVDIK
notes: Human kappa antibody; It was 125I-labelled in the Scatchard assay; also called HuMAb 47G4; CD19 HuMAb 47G4
In the case of B8, the Kd in experiment [4] is about 12 nM.
